The results in this text go back to US20140087995A1 (published 2014).

Sequences and labels used below:
T1: human amylin receptor (human calcitonin receptor co-expressed with RAMP-3; amylin 3(a) receptor) (human, UniProt P30988 25-474; O60896 24-148, limits assumed)
T1 construct: whole, on cells; Used as cell membranes prepared from Amylin 3(a)/CRE-luc BHK cells (Assay V), not as intact cells; also called hAmylin-R; hAmylinR
T1 sequence (looked up) 1: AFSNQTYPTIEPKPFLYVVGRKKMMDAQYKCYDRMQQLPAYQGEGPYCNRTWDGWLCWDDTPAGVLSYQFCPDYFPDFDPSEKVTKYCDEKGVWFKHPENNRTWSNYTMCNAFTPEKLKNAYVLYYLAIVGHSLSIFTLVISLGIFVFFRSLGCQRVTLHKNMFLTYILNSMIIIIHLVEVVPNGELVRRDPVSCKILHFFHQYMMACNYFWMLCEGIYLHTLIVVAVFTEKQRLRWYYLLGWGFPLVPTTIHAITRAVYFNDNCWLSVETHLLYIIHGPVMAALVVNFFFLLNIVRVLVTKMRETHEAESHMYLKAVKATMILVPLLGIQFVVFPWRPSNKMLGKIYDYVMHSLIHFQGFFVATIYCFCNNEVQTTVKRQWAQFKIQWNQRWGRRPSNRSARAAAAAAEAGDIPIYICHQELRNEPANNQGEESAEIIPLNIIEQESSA
T1 sequence (looked up) 2: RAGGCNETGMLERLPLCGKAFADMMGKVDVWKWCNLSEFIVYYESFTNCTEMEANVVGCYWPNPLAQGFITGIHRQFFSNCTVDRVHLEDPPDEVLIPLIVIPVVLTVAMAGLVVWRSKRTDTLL

T2: human calcitonin receptor (human, UniProt P30988 25-474)
T2 construct: whole, on cells; Used as cell membranes prepared from the transfected BHK cells (Assay VII), not as intact cells; also called hCTR; hCT
T2 sequence (looked up): T1 sequence (looked up) 1

B1: N^ε1-[2-[2-[2-[[(4S)-4-carboxy-4-(19-carboxynonadecanoylamino)butanoyl]amino]ethoxy]ethoxy]acetyl]-[Arg17,Pro21,Pro27,Pro31,His35]-h-amylin (peptide)
peptide: K([AEEA-γGlu-C20 diacid])CNTATCATQRLANFLRHSSPNFGAIPSSTPVGSHTY-NH2
modifications: disulfide 2-7; N-terminus assumed
SMILES: CC[C@H](C)[C@H](NC(=O)[C@H](C)NC(=O)CNC(=O)[C@H](Cc1ccccc1)NC(=O)[C@H](CC(N)=O)NC(=O)[C@@H]1CCCN1C(=O)[C@H](CO)NC(=O)[C@H](CO)NC(=O)[C@H](Cc1c[nH]cn1)NC(=O)[C@H](CCCNC(=N)N)NC(=O)[C@H](CC(C)C)NC(=O)[C@H](Cc1ccccc1)NC(=O)[C@H](CC(N)=O)NC(=O)[C@H](C)NC(=O)[C@H](CC(C)C)NC(=O)[C@H](CCCNC(=N)N)NC(=O)[C@H](CCC(N)=O)NC(=O)[C@@H](NC(=O)[C@H](C)NC(=O)[C@@H]1CSSC[C@H](NC(=O)[C@@H](N)CCCCNC(=O)COCCOCCNC(=O)CC[C@H](NC(=O)CCCCCCCCCCCCCCCCCCC(=O)O)C(=O)O)C(=O)N[C@@H](CC(N)=O)C(=O)N[C@@H]([C@@H](C)O)C(=O)N[C@@H](C)C(=O)N[C@@H]([C@@H](C)O)C(=O)N1)[C@@H](C)O)C(=O)N1CCC[C@H]1C(=O)N[C@@H](CO)C(=O)N[C@@H](CO)C(=O)N[C@H](C(=O)N1CCC[C@H]1C(=O)N[C@H](C(=O)NCC(=O)N[C@@H](CO)C(=O)N[C@@H](Cc1c[nH]cn1)C(=O)N[C@H](C(=O)N[C@@H](Cc1ccc(O)cc1)C(N)=O)[C@@H](C)O)C(C)C)[C@@H](C)O
notes: also called compound 57
B2: N^ε1-[2-[2-[2-[[(4S)-4-carboxy-4-(19-carboxynonadecanoylamino)butanoyl]amino]ethoxy]ethoxy]acetyl]-[Arg17,Pro21,Pro27,Pro34]-h-amylin (peptide)
peptide: K([AEEA-γGlu-C20 diacid])CNTATCATQRLANFLRHSSPNFGAIPSSTNVGPNTY-NH2
modifications: disulfide 2-7; N-terminus assumed
SMILES: CC[C@H](C)[C@H](NC(=O)[C@H](C)NC(=O)CNC(=O)[C@H](Cc1ccccc1)NC(=O)[C@H](CC(N)=O)NC(=O)[C@@H]1CCCN1C(=O)[C@H](CO)NC(=O)[C@H](CO)NC(=O)[C@H](Cc1c[nH]cn1)NC(=O)[C@H](CCCNC(=N)N)NC(=O)[C@H](CC(C)C)NC(=O)[C@H](Cc1ccccc1)NC(=O)[C@H](CC(N)=O)NC(=O)[C@H](C)NC(=O)[C@H](CC(C)C)NC(=O)[C@H](CCCNC(=N)N)NC(=O)[C@H](CCC(N)=O)NC(=O)[C@@H](NC(=O)[C@H](C)NC(=O)[C@@H]1CSSC[C@H](NC(=O)[C@@H](N)CCCCNC(=O)COCCOCCNC(=O)CC[C@H](NC(=O)CCCCCCCCCCCCCCCCCCC(=O)O)C(=O)O)C(=O)N[C@@H](CC(N)=O)C(=O)N[C@@H]([C@@H](C)O)C(=O)N[C@@H](C)C(=O)N[C@@H]([C@@H](C)O)C(=O)N1)[C@@H](C)O)C(=O)N1CCC[C@H]1C(=O)N[C@@H](CO)C(=O)N[C@@H](CO)C(=O)N[C@H](C(=O)N[C@@H](CC(N)=O)C(=O)N[C@H](C(=O)NCC(=O)N1CCC[C@H]1C(=O)N[C@@H](CC(N)=O)C(=O)N[C@H](C(=O)N[C@@H](Cc1ccc(O)cc1)C(N)=O)[C@@H](C)O)C(C)C)[C@@H](C)O
notes: also called compound 50
B3: N^ε1-[2-[2-[2-[[(4S)-4-carboxy-4-(19-carboxynonadecanoylamino)butanoyl]amino]ethoxy]ethoxy]acetyl]-[His14,Arg17,Pro21,Pro27,Pro34]-h-amylin (peptide)
peptide: K([AEEA-γGlu-C20 diacid])CNTATCATQRLAHFLRHSSPNFGAIPSSTNVGPNTY-NH2
modifications: disulfide 2-7; N-terminus assumed
SMILES: CC[C@H](C)[C@H](NC(=O)[C@H](C)NC(=O)CNC(=O)[C@H](Cc1ccccc1)NC(=O)[C@H](CC(N)=O)NC(=O)[C@@H]1CCCN1C(=O)[C@H](CO)NC(=O)[C@H](CO)NC(=O)[C@H](Cc1c[nH]cn1)NC(=O)[C@H](CCCNC(=N)N)NC(=O)[C@H](CC(C)C)NC(=O)[C@H](Cc1ccccc1)NC(=O)[C@H](Cc1c[nH]cn1)NC(=O)[C@H](C)NC(=O)[C@H](CC(C)C)NC(=O)[C@H](CCCNC(=N)N)NC(=O)[C@H](CCC(N)=O)NC(=O)[C@@H](NC(=O)[C@H](C)NC(=O)[C@@H]1CSSC[C@H](NC(=O)[C@@H](N)CCCCNC(=O)COCCOCCNC(=O)CC[C@H](NC(=O)CCCCCCCCCCCCCCCCCCC(=O)O)C(=O)O)C(=O)N[C@@H](CC(N)=O)C(=O)N[C@@H]([C@@H](C)O)C(=O)N[C@@H](C)C(=O)N[C@@H]([C@@H](C)O)C(=O)N1)[C@@H](C)O)C(=O)N1CCC[C@H]1C(=O)N[C@@H](CO)C(=O)N[C@@H](CO)C(=O)N[C@H](C(=O)N[C@@H](CC(N)=O)C(=O)N[C@H](C(=O)NCC(=O)N1CCC[C@H]1C(=O)N[C@@H](CC(N)=O)C(=O)N[C@H](C(=O)N[C@@H](Cc1ccc(O)cc1)C(N)=O)[C@@H](C)O)C(C)C)[C@@H](C)O
notes: also called compound 68
B4: N^ε1-[2-[2-[2-[[(4S)-4-carboxy-4-(19-carboxynonadecanoylamino)butanoyl]amino]ethoxy]ethoxy]acetyl]-[Arg17,Pro21,Pro27,Pro34,His35]-h-amylin (peptide)
peptide: K([AEEA-γGlu-C20 diacid])CNTATCATQRLANFLRHSSPNFGAIPSSTNVGPHTY-NH2
modifications: disulfide 2-7; N-terminus assumed
SMILES: CC[C@H](C)[C@H](NC(=O)[C@H](C)NC(=O)CNC(=O)[C@H](Cc1ccccc1)NC(=O)[C@H](CC(N)=O)NC(=O)[C@@H]1CCCN1C(=O)[C@H](CO)NC(=O)[C@H](CO)NC(=O)[C@H](Cc1c[nH]cn1)NC(=O)[C@H](CCCNC(=N)N)NC(=O)[C@H](CC(C)C)NC(=O)[C@H](Cc1ccccc1)NC(=O)[C@H](CC(N)=O)NC(=O)[C@H](C)NC(=O)[C@H](CC(C)C)NC(=O)[C@H](CCCNC(=N)N)NC(=O)[C@H](CCC(N)=O)NC(=O)[C@@H](NC(=O)[C@H](C)NC(=O)[C@@H]1CSSC[C@H](NC(=O)[C@@H](N)CCCCNC(=O)COCCOCCNC(=O)CC[C@H](NC(=O)CCCCCCCCCCCCCCCCCCC(=O)O)C(=O)O)C(=O)N[C@@H](CC(N)=O)C(=O)N[C@@H]([C@@H](C)O)C(=O)N[C@@H](C)C(=O)N[C@@H]([C@@H](C)O)C(=O)N1)[C@@H](C)O)C(=O)N1CCC[C@H]1C(=O)N[C@@H](CO)C(=O)N[C@@H](CO)C(=O)N[C@H](C(=O)N[C@@H](CC(N)=O)C(=O)N[C@H](C(=O)NCC(=O)N1CCC[C@H]1C(=O)N[C@@H](Cc1c[nH]cn1)C(=O)N[C@H](C(=O)N[C@@H](Cc1ccc(O)cc1)C(N)=O)[C@@H](C)O)C(C)C)[C@@H](C)O
notes: also called compound 58
B5: N^ε1-[2-[2-[2-[[(4S)-4-carboxy-4-(19-carboxynonadecanoylamino)butanoyl]amino]ethoxy]ethoxy]acetyl]-[His14,Arg17,Pro21,Pro27,Pro31]-h-amylin (peptide)
peptide: K([AEEA-γGlu-C20 diacid])CNTATCATQRLAHFLRHSSPNFGAIPSSTPVGSNTY-NH2
modifications: disulfide 2-7; N-terminus assumed
SMILES: CC[C@H](C)[C@H](NC(=O)[C@H](C)NC(=O)CNC(=O)[C@H](Cc1ccccc1)NC(=O)[C@H](CC(N)=O)NC(=O)[C@@H]1CCCN1C(=O)[C@H](CO)NC(=O)[C@H](CO)NC(=O)[C@H](Cc1c[nH]cn1)NC(=O)[C@H](CCCNC(=N)N)NC(=O)[C@H](CC(C)C)NC(=O)[C@H](Cc1ccccc1)NC(=O)[C@H](Cc1c[nH]cn1)NC(=O)[C@H](C)NC(=O)[C@H](CC(C)C)NC(=O)[C@H](CCCNC(=N)N)NC(=O)[C@H](CCC(N)=O)NC(=O)[C@@H](NC(=O)[C@H](C)NC(=O)[C@@H]1CSSC[C@H](NC(=O)[C@@H](N)CCCCNC(=O)COCCOCCNC(=O)CC[C@H](NC(=O)CCCCCCCCCCCCCCCCCCC(=O)O)C(=O)O)C(=O)N[C@@H](CC(N)=O)C(=O)N[C@@H]([C@@H](C)O)C(=O)N[C@@H](C)C(=O)N[C@@H]([C@@H](C)O)C(=O)N1)[C@@H](C)O)C(=O)N1CCC[C@H]1C(=O)N[C@@H](CO)C(=O)N[C@@H](CO)C(=O)N[C@H](C(=O)N1CCC[C@H]1C(=O)N[C@H](C(=O)NCC(=O)N[C@@H](CO)C(=O)N[C@@H](CC(N)=O)C(=O)N[C@H](C(=O)N[C@@H](Cc1ccc(O)cc1)C(N)=O)[C@@H](C)O)C(C)C)[C@@H](C)O
notes: also called compound 61

Numbered stars: 1 amine (or outer) side, 2 acyl side, 3 side chain; on linkers, the order of the positions; unused ones are H or OH. Bridge positions count the residues as written; N and C are the ends. Side chains are listed from the residue outwards. Ends that are not written are not given here. * marks the point of attachment. C20 diacid = O=C(O)CCCCCCCCCCCCCCCCCCC(=O)*; γGlu = O=C(O)[C@H](CCC(=O)[*:2])N[*:1]; AEEA = NCCOCCOCC(=O)O

For the first assay, the target named is T1, human amylin receptor (human calcitonin …). The assay can be described thus: ratio of hCTR binding IC50 to hAmylin-R binding IC50 (reference: human calcitonin receptor). How it is done: The resulting pellet was resuspended, homogenized and centrifuged (20.000 rpm, 15 min) in a buffer containing 20 mM Na-HEPES and 0.1 mM EDTA (pH 7.4, buffer 2). The resulting pellet was resuspended in buffer 2 and protein concentration was measured (BCA protein Assay, Pierce). The homogenate was kept cold during the whole procedure. The membranes were kept at −80° C. until use. The assay was performed in a 384 well Optiplate (PerkinElmer) in a total volume of 40 ul. Membranes were mixed with SPA beads. Final concentration of membranes 35 ng/μL final and SPA beads was 0.05 mg/well. Test-compounds were dissolved in DMSO and further diluted in assay buffer (50 mM Hepes, pH 7.4, 1 mM CaCl2, 5 mM MgCl₂, 0.1% OA and 0.02% Tween20). […] The final mixture was incubated with shaking at 400 rpm for 120 min at 25° C. prior to centrifugation (1500 rpm, 10 min). Samples were analyzed on TopCounter™ (Packard). The IC₅₀ was calculated using (one site binding competition analysis) GraphPad Prism5 as a measure of receptor affinity.
Membranes were prepared in the following way; the cells were rinsed with PBS and incubated with Versene for approximately 5 min before harvesting. The cells were flushed with PBS and the cell-suspension was centrifuged for 5 min at 1000 rpm. Cells were homogenized (Ultrathurrax) in a buffer containing 20 mM Na-HEPES and 10 mM EDTA (pH 7.4) and centrifuged at 20.000 rpm for 15 min. The resulting pellet was resuspended, homogenized and centrifuged (20.000 rpm, 15 min) in a buffer containing 20 mM Na-HEPES and 0.1 mM EDTA (pH 7.4, buffer 2). The resulting pellet was resuspended in buffer 2 and protein concentration was measured (BCA protein Assay, Pierce). The homogenate was kept cold during the whole procedure. The membranes were kept at −80° C. until use. Assay was performed in a 384 well Optiplate (PerkinElmer) in a total volume of 40 ul. Membranes were mixed with SPA beads.
Regarding B1, the “Ratio hCT/hAmylin binding” value was determined as 133.
For B2, the “Ratio hCT/hAmylin binding” value stood at 36.
With B3, the “Ratio hCT/hAmylin binding” value was 64.4.
On to B4, for which the “Ratio hCT/hAmylin binding” value was 109.
In the case of B5, the “Ratio hCT/hAmylin binding” value stood at 66.7.

The target in another assay is T2, human calcitonin receptor. The assay can be described thus: SPA competition against 125I-calcitonin, membranes with human calcitonin receptor (Assay VII). A digest of the protocol: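 BHK hCTR membranes 35 ng/μL + SPA beads 0.05 mg/well; buffer 50 mM Hepes pH 7.4, 1 mM CaCl2, 5 mM MgCl₂, 0.1% OA, 0.02% Tween20. 120 min, 25° C., shaking. Scintillation count; IC50 by one-site binding competition.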
In the case of B1, the IC50 is 15.3 nM.
The same measure, in the same setting: as for B2, the figure is 1.38 nM.
As to B3, the IC50 turned out to be 5.66 nM.
B4: the IC50 was 9.63 nM.
Regarding B5, the IC50 was determined as 8.11 nM.

The IC50 is the concentration that gives 50% inhibition.
